Reference: the nanobody polyreactivity screen of Harvey et al. (2022)

Assay: yeast display, Sf9 membrane polyspecificity reagent, FACS + sequencing; frameworks hold sequencing errors
Outline: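 Nanobodies came from a synthetic yeast display library in Saccharomyces cerevisiae BJ5465, induced with galactose for 36–48 hours and stained for 1 hour at 4 °C with 10% biotinylated, detergent-solubilized Sf9 membrane reagent. Cells were enriched on streptavidin microbeads and then FACS-sorted, with low and high (top ~1%) gates set on anti-HA fluorescence for expression and streptavidin fluorescence for reagent binding. Each polyreactivity label reflects the gate a clone came from. Genes were amplified by colony PCR, sequenced by MiSeq 2 × 250 and filtered by CDR length.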

| Sequence | polyreactivity (PSR sort gate) |
| --- | --- |
| QVQLVESGGGLVQAGGSLRLSCAASGFILKYYAMGWYRQAPGKERELVAAISSSGGRTYYADSVKGRFTISRDNAKNTVYLQMNSLKPEDTAVYYCAARVIASRGRYGYWGQGTQVTVSS | high polyreactivity |
| QVQLVESGGGLVQAGGSLRLSCAASGFILLYYAMGWYRQAPVKERELVATITWSDGSTYYADSVKGRFTISRDNAKNTVYLQMNSLKPEDTAVYYCASPYKRYFYKGGDYWGQGTQVTVSS | low polyreactivity |
| QVQLVESGGGLVQAGGSLRLSCAASGFILNWYAMGWYRQAPGKERELVAAISWTTSDTYYADSVKGRFTISRDNAKNTVYLQMNSLKPEDTAVYYCNAKFYAYYVTFVLHYDYWGQGTQVTVSS | low polyreactivity |
| QVQLVESGGGLVQAGGSLRLSCAASGFILPIYAMGWYRQAPGKEREFVAAITWTGGSTYYADSVKGRFTISRDTAKNNVFLQIHSLKPEDTAVYYCAKRYYLRGYGRYYYWGQGTQVTVSS | high polyreactivity |
| QVQLVESGGGLVQAGGSLRLSCAASGFILRYNAMGWYRQAPGKERELVAAISYTGDRTYYADSVKGRFTISRDNAKNTVYLQMNSLKPEDTAVYYCNAVTYGSYYYWGQGTQVTVSS | high polyreactivity |
| QVQLVESGGGLVQAGGSLRLSCAASGFILSRYAMGWYRPAPGTERELVAAITSSGGSTYYADSVKGRFTISRDNAKNTVYLQMNSLKPEDTAVYYCAADRGRYSYNFWGQGTQVTVSS | high polyreactivity |
| QVQLVESGGGLVQAGGSLRLSCAASGFILTSNAMGWYRQAPGKERELVAAITRNGARTYYADSVKGRFTISRDNAKNTVYLQMNSLKPEDTAVYYCAAETVSYWWWGQDIPYYYWGQGTQVTVSS | high polyreactivity |
| QVQLVESGGGLVQAGGSLRLSCAASGFILTSYAMGWYRPEPGKERELVAAISSRGGRTYYADSVKGRFTISRDNAKNTVYLQMNSLKPEDTAVYYCNAVVYVVGDFDYWGQGTQVTVSS | high polyreactivity |
| QVQLVESGGGLVQAGGSLRLSCAASGFILTSYAMGWYRQAPGKERELVAAISSRGGRTYYADSVKGRFTISRDNAKNTVYLQMNSLKPEDTAVYFCNAVVYVVGDFDYWGQGTQVTVSS | high polyreactivity |
| QVQLVESGGGLVQAGGSLRLSCAASGFILVFYAMGWYRQAPGKERELVAAIDWSGTITYYADSVKGRFTISRDNAKKTVYLQINSLKPEDTAVYYCAADGEPFYDFDYWGQRTQVTVSS | high polyreactivity |
| QVQLVESGGGLVQAGGSLRLSCAASGFILYQNALGWYRQAPGKERELVAAITESDGITYYADSVKGRFTISRDNAKNTVYLQMNSLKPEDTAVYDCNTGFSYTYDYWGQGTQVTVSS | low polyreactivity |
| QVQLVESGGGLVQAGGSLRLSCAASGFILYRYAMGWDRQAPGKDRELVAAITRRGGSTYYADSVKGRFTISRDNAKNTVYLQMNSLKPEDTAVYYCNADIGVYGTSDLDYWGQGTQVTLSS | high polyreactivity |
| QVQLVESGGGLVQAGGSLRLSCAASGFISDDYAMGWYRQAPGKERELVAAISDSGVDTYYADSVKGRFTISRDNAKNTVYLLMNSLKPEDTAVYYCATLTYASNRYGYWGQGTHVTVSS | low polyreactivity |
| QVQLVESGGGLVQAGGSLRLSCAASGFISDWYAMGWYRQAPGTERELVATIDWIGGSTYADSVKGRFTISRDNAKNTVYLQMNSLKPEDTAVYYCAADSYFIAWYGAHYAYDYWGQGTQVTVSS | low polyreactivity |
| QVQLVESGGGLVQAGGSLRLSCAASGFISFDKAMGWYRQAPGKERELVAAIRSGGSTNYADSVKGLFTISRDNAKNTVYLQMNSLKPEDTAVYYCATDGSLRARSTSGWEYTNGDYWGQGTQVTVSS | low polyreactivity |
| QVQLVESGGGLVQAGGSLRLSCAASGFISPGYAMGWYRQAPGKERELVAAISVNGGDTYYADSVKGRFTISRDNAKNTVYLQMYSLKPEDTAVYYCAAERGVDDSARYGDYDYWGQGTQVTVSS | low polyreactivity |
| QVQLVESGGGLVQAGGSLRLSCAASGFISYYYAMGWYRQAPGKEREFVAAITSSGGSTRYADSVKGRFSISRDNATNTVYLQMNSLKPEDTAVYYCAAGNPYFWPYDYWGQGTQVTVSS | low polyreactivity |
| QVQLVESGGGLVQAGGSLRLSCAASGFIVTPYTMGWYRQAAGKERELVAAITDGSSTYYADSVKGRFTISRDNAKNTDYLQMNSLKPEETAVYYFNADGKPPYISWLYDYWGHGTQVTVSS | low polyreactivity |
| QVQLVESGGGLVQAGGSLRLSCAASGFIYFGNAMGWYRQAPGKERELVAAINSNGSSTYYADSVKGRFTISRDNAKNTVYFLMNSLQPEDTAVYYCAKKISVHEGAWPSNPDGDYWGQGTQVTVSS | low polyreactivity |
| QVQLVESGGGLVQAGGSLRLSCAASGFIYKYAMGWYRPAPGKERELVAAISQNGGSTRYADSVKGRFTISRDNAKNTVYLQMNSLKPEDTAVYYCNTGVARGYKYWGQGTQVTVSS | high polyreactivity |
| QVQLVESGGGLVQAGGSLRLSCAASGFIYNTKGWYRQAPGKERELVAAISRSGGSTDYADSVKGRFTISRDNAKNTVYLQMTSLKPEDTAVYYCAARRPYRDGYDYWGQGTQVTVSS | high polyreactivity |
